These results are taken from patent EP4293040A1.

For this test, the target named is human trimeric IL-2 receptor (IL-2Rα, IL2Rβ and reconstituted transgenic wild-type GCR) on GnR cells (human) (UniProt P01589). The experiment in a line: cell-based or functional assay.

“IL-15 (from UniProt P40933 49-162) (ligand)” registered an EC50 of the mRuby2 response (STAT5-mRuby2 reporter) of 0.56 nM.
